According to US9724381B2 (THE ADMINISTRATORS OF THE TULANE EDUCATIONAL FUND, priority 2009, dated 2017):
Values joined by “and” are separate entries in the source; they are usually repeats but may differ in a detail not shown here. Equal values may be shown once. Blank lines part the entries; values can stand above or below the substance they belong to. Where no end group is shown, it is not given here. [ ]: non-standard residue; d: D form. The star is where a group is joined. d2Nal = N[C@H](Cc1ccc2ccccc2c1)C(=O)O; Cha = N[C@@H](CC1CCCCC1)C(=O)O; dCha = N[C@H](CC1CCCCC1)C(=O)O; Picolinoyl = O=C(c1ccccn1)*; Nle = CCCC[C@H](N)C(=O)O; Dab = NCC[C@H](N)C(=O)O; dPal = not defined here; Aib = CC(C)(N)C(=O)O; iPr = CC(C)*

Experiments:
[1] = target: T1, Ghrelin/GHRP/GHS Receptor (Rattus norvegicus, UniProt O08725); assay: In vitro GH release from cell culture of pituitary cells; format: cell-based; set-up: After dispersion, the cells were collected by centrifugation, wash with DMEM and placed into culture well; endogenous in cells; host or cells: dispersed primary rat anterior pituitary cells; conditions: Table 8
T1 sequence (O08725 whole entry): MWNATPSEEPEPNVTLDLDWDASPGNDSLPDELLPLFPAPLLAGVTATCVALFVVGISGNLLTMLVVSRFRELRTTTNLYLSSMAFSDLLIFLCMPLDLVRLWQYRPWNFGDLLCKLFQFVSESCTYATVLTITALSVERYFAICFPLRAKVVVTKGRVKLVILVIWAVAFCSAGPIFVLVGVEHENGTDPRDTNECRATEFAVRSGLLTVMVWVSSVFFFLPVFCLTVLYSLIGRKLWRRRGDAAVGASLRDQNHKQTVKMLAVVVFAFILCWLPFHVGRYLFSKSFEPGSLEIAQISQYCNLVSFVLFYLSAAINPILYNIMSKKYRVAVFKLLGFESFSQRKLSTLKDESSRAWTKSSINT
Description: In vitro GH Release-Female rats of the CD-1 strain were housed in a constant temperature room at 24° C. with 14 h light and 10 h darkness. The rats were fed Purina Rat chow and water at libitum. All studies were started between 0800-1000 hours. Pituitaries of mature female Sprague Dawley rats were rapidly removed after decapitation, neurointermediate lobe discarded and then placed in a pH 7.4 buffer. The pituitaries were cut into ˜3-mm pieces and then transferred to a flask containing HEPS buffer with trypsin and incubated at 37° C. Cells were triturated several times during this period. After dispersion, the cells were collected by centrifugation, wash with DMEM and placed into culture well. Cell cultures were maintained for 4 days at 37° with 8% CO2 added to the incubator atmosphere. After 4 days in culture, cells were washed with lactated Ringer's solution adjusted to pH 7.2-7.4 and then vehicle, peptide alone or peptide plus stimulator was added to media. Incubation time was 60-120 minutes after which media was removed from each well for GH determination. The GH RIA reagents were distributed by the NIH. Control data was collected from cell cultures treated with only the corresponding vehicle in the absence of peptide or stimulator. Control stimulated data was collected from cell cultures treated with stimulator alone in the absence of any peptide.

[2] = target: T1, Ghrelin/GHRP/GHS Receptor; assay: In vivo GH release in rat (serum GH by RIA after i.v. peptide); conditions: for Stimulated (S) GH release from rats / Unstimulated GH release from rats: Table 4, pentobarbital rats; for Stimulated (S) GH release from rats: P + S, stimulator 1 μg; for Unstimulated GH release from rats: −S; for Unstimulated Basal GH Release from rat: Table 3; for Unstimulated Basal GH release from rats: Table 5
Description: For the in vivo assay of GH Release in rat, immature female Sprague Dawley rats were obtained from Charles River from Wilmington, Mass. After arrival they were housed at 25° C. with a 14:10 h light:dark cycle. Water and Purina rat chow were available at libitum. Pups were weaned at 21 days of age.
Immature twenty six day old female Sprague Dawley rats, 3-6 rats per treatment dose, were pretreated with pentobarbital 20 minutes before iv injection of vehicle/peptide or peptide plus stimulator. Injection was made as a 0.1 ml solution. For the non-pentobarbital treated rat assay, peptides were administered iv into the tail vein of conscious rats. All animals were sacrificed by guillotine after iv peptide or vehicle. Trunk blood was collected at +10-15 minutes […], allowed to clot, centrifuged and serum stored until assayed for GH levels by RIA. The GH RIA reagents were distributed by the NIH. Control data was collected from rats treated with only the corresponding vehicle in the absence of peptide or stimulator. Control stimulated data was collected from rats treated with stimulator alone in the absence of any peptide.

[3] = peptide antagonist dosage 3 (head prints μg/i.v.)
[4] = peptide antagonist dosage 10 (head prints μg/i.v.)
[5] = peptide antagonist dosage 30 (head prints μg/i.v.)
[6] = peptide antagonist dosage 1 (head prints μg/i.v.)
[7] = peptide antagonist alone 1 μg i.v.
[8] = peptide antagonist alone 10 μg i.v.

- Unstimulated Basal GH release from cell cultures of pituitary cells [1, 3]: 1081 ± 50 ng/mL
- Unstimulated Basal GH release from cell cultures of pituitary cells [1, 4]: 997 ± 30 ng/mL
- Unstimulated Basal GH release from cell cultures of pituitary cells [1, 5]: 425 ± 25 ng/mL
Substance: DPal-Phe-DTrp-Phe-Met-NH2 ([dPal]F[dW]FM-NH2; reading uncertain; also: printed as DPal-Phe-DTrp-Phe-Met-NH2)

- Unstimulated Basal GH release from cell cultures of pituitary cells [1, 6]: 1086 ± 52 ng/mL
- Unstimulated Basal GH release from cell cultures of pituitary cells [1, 3]: 1103 ± 18 ng/mL
- Unstimulated Basal GH release from cell cultures of pituitary cells [1, 4]: 994 ± 22 ng/mL
- Unstimulated Basal GH release from cell cultures of pituitary cells [1, 5]: 704 ± 115 ng/mL
Substance: αAib-DTrp-DAla-cyclohexylAla-NH2 ([Aib][dW][dA][Cha]-NH2; N-terminus assumed; SMILES C[C@@H](NC(=O)[C@@H](Cc1c[nH]c2ccccc12)NC(=O)C(C)(C)N)C(=O)N[C@@H](CC1CCCCC1)C(N)=O)

- Unstimulated Basal GH release from cell cultures of pituitary cells [1, 6]: 980 ± 44 ng/mL
- Unstimulated Basal GH release from cell cultures of pituitary cells [1, 3]: 826 ± 32 ng/mL
- Unstimulated Basal GH release from cell cultures of pituitary cells [1, 4]: 602 ± 53 ng/mL
- Unstimulated Basal GH release from cell cultures of pituitary cells [1, 5]: 492 ± 11 ng/mL
Substance: αAib-DTrp-DcyclohexylAla-NH2 ([Aib]-[dW]-[dCha]-NH2; N-terminus assumed; SMILES CC(C)(N)C(=O)N[C@H](Cc1c[nH]c2ccccc12)C(=O)N[C@H](CC1CCCCC1)C(N)=O)

- Unstimulated Basal GH release from cell cultures of pituitary cells [1, 6]: 286 ± 75 ng/mL
- Unstimulated Basal GH release from cell cultures of pituitary cells [1, 3]: 177 ± 44 ng/mL
- Unstimulated Basal GH release from cell cultures of pituitary cells [1, 4]: 271 ± 38 ng/mL
- Unstimulated Basal GH release from cell cultures of pituitary cells [1, 5]: 376 ± 28 ng/mL
Substance: DAla-DcyclohexylAla-Ala-Ala-Phe-DPhe-Nle-NH2 ([dA][dCha]AAF[dF][Nle]-NH2; N-terminus assumed; SMILES CCCC[C@H](NC(=O)[C@@H](Cc1ccccc1)NC(=O)[C@H](Cc1ccccc1)NC(=O)[C@H](C)NC(=O)[C@H](C)NC(=O)[C@@H](CC1CCCCC1)NC(=O)[C@@H](C)N)C(N)=O)

- Unstimulated Basal GH release from cell cultures of pituitary cells [1, 4]: 267 ± 27 ng/mL
- Unstimulated Basal GH release from cell cultures of pituitary cells [1, 5]: 276 ± 65 ng/mL
- Unstimulated Basal GH release from cell cultures of pituitary cells ([1]; peptide antagonist dosage 100 (head prints μg/i.v.)): 360 ± 84 ng/mL
Substance: DPhe-Ala-Phe-DPhe-Lys-NH2 ([dF]AF[dF]K-NH2; N-terminus assumed; SMILES C[C@H](NC(=O)[C@H](N)Cc1ccccc1)C(=O)N[C@@H](Cc1ccccc1)C(=O)N[C@H](Cc1ccccc1)C(=O)N[C@@H](CCCCN)C(N)=O)

- Unstimulated Basal GH release from cell cultures of pituitary cells [1, 3]: 1146 ± 34 ng/mL
- Unstimulated Basal GH release from cell cultures of pituitary cells [1, 4]: 1086 ± 32 ng/mL
- Unstimulated Basal GH release from cell cultures of pituitary cells [1, 5]: 871 ± 89 ng/mL
Substance: DPhe-Trp-DPhe-Phe-Met-NH2 ([dF]W[dF]FM-NH2; N-terminus assumed; SMILES CSCC[C@H](NC(=O)[C@H](Cc1ccccc1)NC(=O)[C@@H](Cc1ccccc1)NC(=O)[C@H](Cc1c[nH]c2ccccc12)NC(=O)[C@H](N)Cc1ccccc1)C(N)=O)

Substance: DLys-Tyr-DTrp-DTrp-Phe-NH2 ([dK]Y[dW][dW]F-NH2; N-terminus assumed; SMILES NCCCC[C@@H](N)C(=O)N[C@@H](Cc1ccc(O)cc1)C(=O)N[C@H](Cc1c[nH]c2ccccc12)C(=O)N[C@H](Cc1c[nH]c2ccccc12)C(=O)N[C@@H](Cc1ccccc1)C(N)=O)
- Unstimulated Basal GH release from cell cultures of pituitary cells [1, 6]: 1451 ± 19 ng/mL
- Unstimulated Basal GH release from cell cultures of pituitary cells [1, 3]: 1175 ± 77 ng/mL
- Unstimulated Basal GH release from cell cultures of pituitary cells [1, 4]: 1129 ± 6 ng/mL
- Unstimulated Basal GH release from cell cultures of pituitary cells [1, 5]: 744 ± 44 ng/mL

- Unstimulated Basal GH release from cell cultures of pituitary cells [1, 3]: 1013 ± 207 ng/mL
- Unstimulated Basal GH release from cell cultures of pituitary cells [1, 4]: 976 ± 13 ng/mL
- Unstimulated Basal GH release from cell cultures of pituitary cells [1, 5]: 928 ± 16 ng/mL
Substance: Ac-DβNal-PicLys-ILys-DPhe-NH2 (Ac-[d2Nal]K(Picolinoyl)K(iPr)[dF]-NH2; SMILES CC(=O)N[C@H](Cc1ccc2ccccc2c1)C(=O)N[C@@H](CCCCNC(=O)c1ccccn1)C(=O)N[C@@H](CCCCNC(C)C)C(=O)N[C@H](Cc1ccccc1)C(N)=O) [Ac-DβNal-PlcLys-ILys-DPhe-NH2]

Substance: DAla-DβNal-DLys-DTrp-Phe-Lys-NH2 ([dA][d2Nal][dK][dW]FK-NH2; N-terminus assumed; SMILES C[C@@H](N)C(=O)N[C@H](Cc1ccc2ccccc2c1)C(=O)N[C@H](CCCCN)C(=O)N[C@H](Cc1c[nH]c2ccccc12)C(=O)N[C@@H](Cc1ccccc1)C(=O)N[C@@H](CCCCN)C(N)=O)
- Stimulated GH release from rat ([2]; Table 2, peptide antagonist 30 μg i.v. + stimulator DAla-DβNal-Ala-Trp-DPhe-Lys-NH2 1 μg): 2884 ± 828 ng/mL
- Stimulated GH release from rat ([2]; Table 2, peptide antagonist 100 μg i.v. + stimulator DAla-DβNal-Ala-Trp-DPhe-Lys-NH2 1 μg): 1198 ± 114 ng/mL
- Stimulated (S) GH release from rats ([2]; peptide 30 μg i.v.): 2864 ± 828 ng/mL
- Stimulated (S) GH release from rats ([2]; peptide 100 μg i.v.): 1198 ± 114 ng/mL
- Unstimulated GH release from rats ([2]; peptide 30 μg i.v.): 323 ± 50 ng/mL
- Unstimulated GH release from rats ([2]; peptide 100 μg i.v.): 812 ± 6 ng/mL

- Unstimulated Basal GH Release from rat ([2]; peptide alone 1 μg i.v.): 204 ± 44 ng/mL
- Unstimulated Basal GH Release from rat ([2]; peptide alone 3 μg i.v.): 127 ± 44 ng/mL
- Unstimulated Basal GH Release from rat ([2]; peptide alone 10 μg i.v.): 83 ± 5 ng/mL
Substance: His-Trp-DAla-DTrp-Phe-LysNH2 (HW[dA][dW]FK-NH2)

- Unstimulated Basal GH release from rats [2, 7]: 80 ± 35 ng/mL
- Unstimulated Basal GH release from rats [2, 8]: 62 ± 15 ng/mL
- Unstimulated Basal GH release from rats ([2]; peptide antagonist alone 30 μg i.v.): 67 ± 8 ng/mL
Substance: αγAbu-DTrp-DTrp-Ser-NH2 ([Dab][dW][dW]S-NH2; N-terminus assumed; SMILES NCC[C@H](N)C(=O)N[C@H](Cc1c[nH]c2ccccc12)C(=O)N[C@H](Cc1c[nH]c2ccccc12)C(=O)N[C@@H](CO)C(N)=O)

- Unstimulated Basal GH release from rats [2, 7]: 57 ± 7 ng/mL
- Unstimulated Basal GH release from rats ([2]; peptide antagonist alone 3 μg i.v.): 84 ± 18 ng/mL
- Unstimulated Basal GH release from rats [2, 8]: 62 ± 15 ng/mL
Substance: αγAbu-DTrp-DTrp-Lys-NH2 ([Dab][dW][dW]K-NH2; N-terminus assumed; SMILES NCCCC[C@H](NC(=O)[C@@H](Cc1c[nH]c2ccccc12)NC(=O)[C@@H](Cc1c[nH]c2ccccc12)NC(=O)[C@@H](N)CCN)C(N)=O)

- Unstimulated Basal GH Release from rat ([2]; peptide alone 1 μg i.v.): 199 ± 63 ng/mL
- Unstimulated Basal GH Release from rat ([2]; peptide alone 3 μg i.v.): 266 ± 68 ng/mL
- Unstimulated Basal GH Release from rat ([2]; peptide alone 10 μg i.v.): 199 ± 23 ng/mL
- Unstimulated Basal GH Release from rat ([2]; peptide alone 30 μg i.v.): 346 ± 82 ng/mL
- Unstimulated Basal GH Release from rat ([2]; peptide alone 100 μg i.v.): 350 ± 61 ng/mL
Substance: DcyclohexylAla-Ala-Phe-DTrp-Lys-NH2 ([dCha]AF[dW]K-NH2; N-terminus assumed; SMILES C[C@H](NC(=O)[C@H](N)CC1CCCCC1)C(=O)N[C@@H](Cc1ccccc1)C(=O)N[C@H](Cc1c[nH]c2ccccc12)C(=O)N[C@@H](CCCCN)C(N)=O)

- Stimulated Control 0.3 μg, GH release from rat ([2]; Table 2, stimulator DAla-DβNal-Ala-Trp-DPhe-Lys-NH2 alone, 0.3 μg): 2253 ± 252 ng/mL and 1412 ± 400 ng/mL
Substance: DAla-DβNal-Ala-Trp-DPhe-Lys-NH2 ([dA][d2Nal]AW[dF]K-NH2) [reference compound]
- Stimulated Control 1 μg, GH release from rat ([2]; Table 2, stimulator DAla-DβNal-Ala-Trp-DPhe-Lys-NH2 alone, 1 μg): 3214 ± 276 ng/mL and 3105 ± 429 ng/mL and 2406 ± 288 ng/mL and 2825 ± 134 ng/mL and 3104 ± 429 ng/mL

- Unstimulated Basal GH Release from rat ([2]; peptide alone 1 μg i.v.): 623 ± 60 ng/mL
- Unstimulated Basal GH Release from rat ([2]; peptide alone 3 μg i.v.): 694 ± 70 ng/mL
- Unstimulated Basal GH Release from rat ([2]; peptide alone 10 μg i.v.): 654 ± 58 ng/mL
- Unstimulated Basal GH Release from rat ([2]; peptide alone 30 μg i.v.): 713 ± 71 ng/mL
Substance: DβNal-Ala-Trp-DPhe-Ala-NH2 ([d2Nal]AW[dF]A-NH2; N-terminus assumed; SMILES C[C@H](NC(=O)[C@@H](Cc1ccccc1)NC(=O)[C@H](Cc1c[nH]c2ccccc12)NC(=O)[C@H](C)NC(=O)[C@H](N)Cc1ccc2ccccc2c1)C(N)=O)

- Unstimulated Basal GH Release from rat ([2]; peptide alone 3 μg i.v.): 253 ± 79 ng/mL
- Unstimulated Basal GH Release from rat ([2]; peptide alone 10 μg i.v.): 277 ± 43 ng/mL
- Unstimulated Basal GH Release from rat ([2]; peptide alone 30 μg i.v.): 347 ± 66 ng/mL
- Unstimulated Basal GH Release from rat ([2]; peptide alone 100 μg i.v.): 645 ± 117 ng/mL
Substance: DβNal-Ala-Trp-DPhe-Leu-NH2 ([d2Nal]AW[dF]L-NH2; N-terminus assumed; SMILES CC(C)C[C@H](NC(=O)[C@@H](Cc1ccccc1)NC(=O)[C@H](Cc1c[nH]c2ccccc12)NC(=O)[C@H](C)NC(=O)[C@H](N)Cc1ccc2ccccc2c1)C(N)=O)
